In patent US8367368B2, “D-serine dehydratase and use thereof” (National University Corporation Nagoya University, priority 2006, dated 2013):
Entries after “also recorded” stand apart in the source; their conditions may differ.

Tests used:
Assay type in all cases: biochemical
[1] = molecular target: T1, novel D-serine dehydratase (Saccharomyces cerevisiae, UniProt P53095); experiment: Influence of metal ion and EDTA on enzymatic activity, Nessler method
T1 construct: made in house; host or cells: Escherichia coli BL21 (DE3)
T1 sequence (P53095 1-428): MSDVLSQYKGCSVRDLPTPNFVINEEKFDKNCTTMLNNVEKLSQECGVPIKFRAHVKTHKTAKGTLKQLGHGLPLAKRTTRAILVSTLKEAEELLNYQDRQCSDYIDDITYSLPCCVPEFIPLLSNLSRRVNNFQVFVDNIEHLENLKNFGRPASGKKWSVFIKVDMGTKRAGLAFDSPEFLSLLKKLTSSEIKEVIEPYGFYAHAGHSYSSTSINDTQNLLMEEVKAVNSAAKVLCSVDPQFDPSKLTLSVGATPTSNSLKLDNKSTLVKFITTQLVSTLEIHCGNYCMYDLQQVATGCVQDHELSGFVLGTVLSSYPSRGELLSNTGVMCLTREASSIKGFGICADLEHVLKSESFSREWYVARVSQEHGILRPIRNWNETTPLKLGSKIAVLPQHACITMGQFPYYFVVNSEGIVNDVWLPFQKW
Experimental: (§1) To a reaction solution (final volume: 200 μl) containing 50 mM of HEPES-NaOH buffer (pH 8.0), […] of pyridoxal-5′-phosphate and 10 mM of D-serine, an appropriate amount of D-serine dehydratase was added and incubated at 30° C. Thereafter, trichloroacetic acid (final concentration: 5%) was added to stop the reaction. Ammonia in the centrifuged supernatant was quantified by using a Nessler reagent.
The influence and effect of metal ion on the activity of the novel enzyme were examined by the following method. The compounds shown in FIG. 5 were incubated with untreated novel enzyme and 2 mM EDTA, and then dialyzed with Tris buffer solution. The D-serine dehydratase activity of the novel enzyme was measured by a Nessler method in the presence of 0.05 mM or 0.5 mM of any of KCl, NaCl, MnCl2, MgCl2, CaCl2, NiSO4, CuSO4 and ZnCl2.

[2] = D-serine dehydratase activity of the purified enzyme, Nessler method; conditions: 10 mM D-serine, HEPES-NaOH pH 8.0, 30° C.
Experimental: as §1, with “The activity of serine dehydratase was measured as follows: ammonia as a reaction product was measured by a Nessler method or pyruvic acid as a reaction product was measured by coupling with lactate dehydrogenase and by oxidation of NADH. Hereinafter, outline of each method is shown. To” for “To”

[3] = Substrate-specificity by the Nessler method, L-serine as substrate; conditions: same conditions as D-serine
Experimental: (§2) To a reaction solution (final volume: 200 μl) containing 50 mM of HEPES-NaOH buffer (pH 8.0), […] of pyridoxal-5′-phosphate and 10 mM of D-serine, an appropriate amount of D-serine dehydratase was added and incubated at 30° C. Thereafter, trichloroacetic acid (final concentration: 5%) was added to stop the reaction. Ammonia in the centrifuged supernatant was quantified by using a Nessler reagent. The substrate-specificity of the novel enzyme was examined by the following method. That is to say, as the substrate, L-serine and D-threonine in addition to D-serine were prepared, and the reactivity of the enzyme with respect to each substrate was examined by the Nessler method. Note here that the reactivity of the enzyme with respect to L-serine or D-threonine was examined by the Nessler method in the same conditions as in the case of D-Serine except that L-serine (Wako Pure Chemical Industries, Ltd.) or D-threonine (Wako Pure Chemical Industries, Ltd.) was used as a substrate.

[4] = Dynamic characteristic (reciprocal plot of rate against D-serine concentration), Nessler method; conditions: substrate D-serine
Experimental: as §1
The dynamic characteristic of the novel enzyme was examined by the following method. In the Nessler method, the concentration of D-serine was changed and the D-serine dehydratase activity of the novel enzyme in the respective concentrations of D-serine was measured. The inverse number of the obtained rate was plotted to the inverse number of the D-serine concentration. Then, the maximum rate was calculated from the inverse number of the y section and Km value was calculated from the inverse number of the x section.

[5] = Effect of pH on enzymatic activity, Nessler method; conditions: MOPS, MES, HEPES, Tris buffers
Experimental: as §1
The relationship between the activity of the novel enzyme and pH at the reaction was examined by the following method. In the Nessler method, buffer solution was changed to MOPS (pH 6.5-8.0), MES (pH 6.0-6.5), HEPES (pH 7.0-8.5), and Tris (pH 7.5-9.0), respectively. By using the reaction solution, the D-serine dehydratase activity of the novel enzyme was measured.

[6] = Substrate-specificity by the Nessler method, D-threonine as substrate; conditions: same conditions as D-serine
Experimental: as §2

O=C(O)CN(CCN(CC(=O)O)CC(=O)O)CC(=O)O [EDTA]
effect of EDTA on enzymatic activity ([1]; incubated with 2 mM EDTA, then dialyzed with Tris buffer): mostly deactivated; also recorded: inhibited

[Cl-].[Cl-].[Zn+2] [zinc, ZnCl2]
effect of zinc on enzymatic activity ([1]; addition of zinc to EDTA-treated enzyme, low concentration): activated
zinc concentration at which the enzymatic activity was increased most ([1]; same experiment while changing the zinc concentration): 0.005 mM

B1: novel D-serine dehydratase: protein of Saccharomyces cerevisiae, YGL196W (SEQ ID NO: 1), with D-serine dehydratase activity; recombinant, His-tagged, expressed in Escherichia coli (protein, listed as Saccharomyces cerevisiae)
chain: MSDVLSQYKGCSVRDLPTPNFVINEEKFDKNCTTMLNNVEKLSQECGVPIKFRAHVKTHKTAKGTLKQLGHGLPLAKRTTRAILVSTLKEAEELLNYQDRQCSDYIDDITYSLPCCVPEFIPLLSNLSRRVNNFQVFVDNIEHLENLKNFGRPASGKKWSVFIKVDMGTKRAGLAFDSPEFLSLLKKLTSSEIKEVIEPYGFYAHAGHSYSSTSINDTQNLLMEEVKAVNSAAKVLCSVDPQFDPSKLTLSVGATPTSNSLKLDNKSTLVKFITTQLVSTLEIHCGNYCMYDLQQVATGCVQDHELSGFVLGTVLSSYPSRGELLSNTGVMCLTREASSIKGFGICADLEHVLKSESFSREWYVARVSQEHGILRPIRNWNETTPLKLGSKIAVLPQHACITMGQFPYYFVVNSEGIVNDVWLPFQKW
modifications: His tag
notes: recombinant, His-tagged, expressed in Escherichia coli
specific activity [2]: 3.7 gmol/min/mg
reactivity with respect to L-serine [3]: does not react with L-serine at all
reactivity with respect to L-serine ([3]; listed as novel enzyme): no reactivity
maximum rate ([4]; Example text): 4.2 µmol/min/mg
Vmax value ([4]; FIG. 7 legend): 4.2 µmol/min/mg
Km ([4]; read-out: Km value with respect to D-serine): 460 µM
optimum pH [5]: around 8
reactivity to D-threonine when the reactivity to D-serine was 100% [6]: 5%
reactivity with respect to D-threonine [6]: extremely low
reactivity with respect to D-threonine ([6]; listed as novel enzyme): low reaction
